The values that follow come from US20170349625A1.

For data set [1], the system named is T1, 5,6-carboxyfluorescein labeled Tub-tag peptide (CF-Tub-tag, peptide 13).
T1 sequence: VDSVEGEGEEEGEE

The target of data set [2] is GBP4-Tub-tag (GFP-specific nanobody GBP4 with the Tub-tag sequence fused to its C-terminus). Kind of data set: cell-based or functional assay.
Chain of GBP4-Tub-tag (GFP-specific nanobody GBP4 with the Tub-tag sequence fused to its C-terminus) (heavy, as listed by the source): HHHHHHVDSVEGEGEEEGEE

In the case of “tubulin tyrosine ligase (TTL, Canis lupus)”, in data set [1], the “conjugate yield after 120 min at 37 C, 3-N3-L-tyrosine (3), TTL:peptide 1:200, isocratic HPLC” value was “After 120 min of incubation at 37 °C the conjugate yield with 1 and 3 was 63% and 80%, respectively”; the “conjugate yield after 120 min at 37 C, 3-formyl-L-tyrosine (1), TTL:peptide 1:200, isocratic HPLC” value is “After 120 min of incubation at 37 °C the conjugate yield with 1 and 3 was 63% and 80%, respectively”.

In data set [2], “tubulin tyrosine ligase (TTL, Canis lupus) (enzyme)” came in with a C-terminally modified GBP4 (3-N3-L-tyrosine incorporation followed by SPAAC to DBCO-biotin), 1:10 TTL/GBP4, 37 C, one hour of 71%; a conversion of GBP4 (3-N3-L-tyrosine incorporation followed by SPAAC to DBCO-biotin), 1:5 TTL/GBP4, 37 C, one hour of 82%; a conversion of GBP4, 1:5 TTL/GBP4, three hours of 99%; a conversion of GBP4, 1:10 TTL/GBP4, three hours of 88%.
